Experimental data as given in the DeepSol protein solubility set.

Assay: soluble on expression in E. coli; label from the status in PepcDB or PDB records

| Sequence | soluble on expression in E. coli |
| --- | --- |
| SMCEKVISVGQTVITKHRNTRYYSCRVMAVTSQTFYEVMFDDGSFSRDTFPEDIVSRDCLKLGPPAEGEVVQVKWPDGKLYGAKYFGSNIAHMYQVEFEDGSQIAMKREDIYTLDEELPKRVK | soluble |
| MAHHHHHHMEDGVIISGDYIQMEKDKVKRINEHNFEQVHDVESDNLYRSKCSGILLKTPYYPYKYDIMNTSYKYMPKVGDLVIGIVKSKKLDYYQMDINCNCECIIHKIESFKYATKNSFPNLANGTLLYMIVEKINLDNNSVVASCINSSDVKSWINYENYLGELVDGYMFPVSISYAKSLIGDKCYLLDLIGADVSYEVAVGHNGR | not soluble |
| MSLKITHTEIYRFSIPMEPFVIATGTMHFAQNVLIRIHTDNGLYGLGECSAFPMIVGENQDTCLVMAREFAKLLPGKDPLDIPGRMNDLLGYADRNTTIKSAFDMALFDLAAKHAGQPLYQFLGGNRKKVETDMTIGISSPEKMAQLAQHYQAQGCSILKVKLGKDIHEDIERVAQIRAAVGGMMTIRLDANQGWSFDDALYGLGALAKYDIEFCEQPMRSWYDDRLPELQLNSPIAIMADESCYNHHDARRLINSRSCEYLNIKFSKSGGILEAQKIHEVALQHGMKCMMGGMLESRLAATAKLHFALSAPNIVFFDLDTCMLGHLIDPVVGGMSYEGFILDVPEAPGIGADADPAFLDECESWRIEGHHHHHH | soluble |
| MKPVQSVSATQHYNPLTNLGQEASCSHEISGITQTEGMQATAATTQTAEQLTTARVRDITAAAKVIPDGTTVMSRKPEDLSQLQTAYLAAKNAPTHPDLYLKLCETFRVHDERHASEGHENICAKTMTARIDDDAIRVMAYASRGMHGGDVNNFLKFSFNSGLPNPISSALPSMLTFGASSFIGAVHGPWSGFGSALAFAAAKPFMAGGIQPAIVSLCDNIRGRNAPTVLAKGEVNDEIWLDAAAQTLEGLNEDTRRALTSFDDAVQAAITSVGIRDPKFLETDEGLELFFDHLSDTHFNCLREALEGVNNALQNTAPQTRESLRALEEASRPNMLEQRETTLKAEFSNLRQKEGNDWQRIPRSLRASGGTLTSGLSGLKRDEIPTRMNPALDRKSHFEGLNALASPAVGTSYAAAISLLQSPMAGLDERNKQKFNVKAAIVFYDAFTPEGKQRYLAGEEMDPDRDVDQAKLRGVFTSVSEYMVKSTQENLKQRQKVLGVEISEAGHALNALPENTSSITPPEIRAKVERYKALSADMSAVTQAIREGNPNFLTDLPDGEVKKAFDDCVNSGGMHVLENMTKVKYAKQGELKAQWTQKVSTDVSMFGLAGQFTPSIVNKLAAAICGGAGHIPNAVVGFLGAYSLAASFIGAQTQFAAINAKNNFREGNPKPTSLETFMRGNLAPVMQASANRHSQHALQGAEQAISTARQALNSSLGQNL | not soluble |
| SDKFLVRPDLRDLQGGGEEPAPTGGASGDLKSPDWRHLRAEGLSCDYTVLFGKAEADKIFRELEQEVEYFTGALAKVQVFGKWHSVPRKQATYGDAGLTYTFSGLTLTPKPWVPVLERVRDRVCEVTGQTFNFVLVNRYKDGCDHIGEHRDDERELAPGSPIASVSFGACRDFIFRHKDSRGKRPRRTVEVVRLQLAHGSLLMMNPPTNTHWYHSLPIRKRVLAPRVNLTFRKILPTKK | soluble |
| MSLKELIALKRKVGLPGVTFAAMADGIWVLQVLPGAGIEKTGLRKGHQIVGVGGKPLAGNKLEDLFKAIEANNITDTMSRGSSERMYSRMTRDTKTQGPVVVLNVKQSRQQEKPFLILCKKEMFRSKIIEIEEDEFEDEVLKAPLPVAVTFWGDSCEPCKEFVPVLEAESAKYAGKVKFVNINVDGNRKLADQLAVKEVPALMVYKGGSAVATATGKLPREKVAEMLQDAAGREGHHHHHH | soluble |
| PTNIHKIHEVQKKLQEEVSIVLIDIADIIVNPKKENGYSRDLYTLNSLIDSSISETYDNINNTLLSDTRFFLEHMDIIKSQRDILENLYSYVSQLNSTPPQAHILSAFIHKIGYTEFEAETGNLLLEELKRLMISMKNQPLPVDRTEFENRAILFLCLTELKQFLVNRKHAQML | soluble |
| MGSDKIHHHHHHVGTVNVRSGRMRYFTNRDAPLDVEHVMAPAAFPPGFPAVRLEAESYWDGGIYSNTPLEAVLDDRPRRDSVIFSVQLWPSSGPEPESILQVMSRQRDIQYSSRAESHLDRQKQIHRLRHVIRELGQHLPEEQRNAPAVRELLDWGCGTTMQVLELDAPAFDNDDLNRDIDFSSAGIERRWRAGYEDTARLLKLAPWRETLDPMEGISVFRMASAESRK | not soluble |
| VLSAIGIVPSAPVLVPELAGAAAAELADLGAAVIAAASLLPKSWIAVGTGRADDVVRPTDVGTFAGFGADVRVGLAPQDGDGVAVPVELPLCALLTAWVRGQARPEARAQVHVYASDHGSDAAVARGRQLRADIDREPDPIGVLVVADGLNTLTPRAPGGYDPDGAGMQRALDDALASGDLAVLTRLPAQVLGRVAFQVLAGLAEPGPRSAKEFYRGAPHGVGYFAGVWQP | not soluble |
| GGSVIVIDSKAAWDAQLAKGKEEHKPIVVDFTATWCGPCKMIAPLFETLSNDYAGKVIFLKVDVDAVAAVAEAAGITAMPTFHVYKDGVKADDLVGASQDKLKALVAKHAAA | soluble |
| MHPMNILLKLPLKIPLMIIEKAREILEKHPLCNHCLGRMFAKLGKGTNEERGKAIRLILSMELNREVKEPENCELCQGIFRRMNELLDLVRNAVEDYEFQTFQIGSRFPKDILEKEKKIWEEFGITTGEPINREFNRELGKLFAKVTGKIPNRERPDIVIIVEPFSSKVELQVNPIYVAGRYRKLVRGIPQTPAPGFEESIATIICRVFKKNFRGKCIFKGAGREDVDVRTLGRGRPFVVEIKKPRKRKVDLKLIEEEINSSGKVEVLELKFITPEESEKILTARHKKIYEALVYVKDGVSAEEVEKVVKSLKGSEIKQRTPRRVLNSRADIVRVRRVYNVSGEYIDEHHFKLKLVTDGGLYIKELISGDKGRTKPSVSEILGKEAWCEILDVLDVLDGDENVEGDSLEHHHHHH | not soluble |
| MSLAESRLTKLGQELAADKEFSSLERFADLVEKLQASLEIDATTLAAILLKRQQGKRPLFYVGADPMIEAMEREKSRRRERRDDRRDGDRPARREFGGRDQENHDWDTYQLQVGRDQGVQVKDIVGALANELGLTKGSIGAIKLAQGHTFVQLPKAMSNDVSSKLRKLRIRQKEVGAVVCDFDDFRESRGGARREGGPRREGGRRPEGNREGGFRGGREGGREGGRGRGGEGRPFREGERRFERNRSGESSGSYRGERGHSRRREEAEGHHHHHH | not soluble |
| MINSVITQMAEELRKASKVALFSHVSPDGDCIGSMLGIGLALEALGKEVAMFNPDPIPRNLSFLPGVDKITQSMPDPLPETLLFVDCADLQRVQLQREDLPADAVILNLDHHISNQNFGRINWVDSQAAASGELAYALVRRLNVELTQEIAANFYTALLTDTGSFKYANTTAKTHQIAGELMETGISLGDIHHFVFDQTPMVKLELLRRGLNQLQFFAEGQLGMMTLRKQDFEESGAEESLSEGLIDHARTVEGVEVAVLLKEVKPDVVRVSLRSNRWFDVNRIADGFGGGGHQRAAGCTLHLSLEEAKQKVRQIIEEELKLGRSHLEHHHHHH | soluble |
| MFRVLHLADLHLGYRPDLPAPVREEVYRARNRVLQAAVDLALDPRQGISLVLIAGDLFDNHRPEASLVEETIRQLTRLEAAGIQVITVPGNHDEITYNDAVYRREAGRWPGLLVTDPMPAKVATLKVKGDTCHLMAMAYTGGVTRVDGPLKAFPPAEGEGVNLAVFHGSLDWDGGERSLPLDGEALAAAGYDYIALGHIHRGGQRRLGRGLAVYAGMVAGKGFADPGTGSWTIVTLGDGPARVEQVPARVTPWRLVDLDVTAFQEPEELETAVRDALDPLEHHHHHH | not soluble |
| MSLKFLLTTAQGIEDIAKREVSLLLKKLGISFQIEEKPLGIEGRLLLEAEKAYYVDEKGRKRELSISTYLNENSRLLHRVIIEIASEKFNGIEKDESEEALKRIKDFVSSLPVEQFVKVSETFAVRSFRKGDHNITSIDIARTVGEAIFERLSRFGTPLVNLDHPAVIFRAELIKDVFFLGIDTTGDSSLHKRPWRVYDHPAHLKASIANAMIELAELDGGSVLDPMCGSGTILIELALRRYSGEIIGIEKYRKHLIGAEMNALAAGVLDKIKFIQGDATQLSQYVDSVDFAISNLPYGLKIGKKSMIPDLYMKFFNELAKVLEKRGVFITTEKKAIEEAIAENGFEIIHHRVIGHGGLMVHLYVVKGIITITTDPNSSSVDKLAAALEHHHHHH | soluble |
